Measured values taken from paper PMC4219717.

Legend:
[1] = biological target: GST-AHSP^WT (human) (UniProt Q9NZD4)
[2] = biological target: GST-α-Hb^WT (human)
[3] = biological target: GST-α-Hb1-126 (human)
[4] = biological target: GST-α-Hb1-138 (human)
[5] = biological target: GST-α-Hb1-134 (human)
[6] = biological target: GST-α-Hb1-117 (human)

Sequence of UniProt Q9NZD4 (Q9NZD4 whole entry): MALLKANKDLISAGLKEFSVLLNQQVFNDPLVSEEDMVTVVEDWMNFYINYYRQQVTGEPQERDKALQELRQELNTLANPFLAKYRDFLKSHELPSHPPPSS

Q: For GST-α-Hb1-126 (domain or fragment), which CO recombination kinetics after flash photolysis of the GST-AHSP^WT/GST-α-Hb complex: fraction of the intermediate (I) phase [1] is on record?
A: Its CO recombination kinetics after flash photolysis of the GST-AHSP^WT/GST-α-Hb complex: fraction of the intermediate (I) phase is 19 % I phase.

Q: With native β-Hb (natural protein) as the substance, how does the CO recombination kinetics after addition of β-Hb and 1 mM IHP to the GST-AHSP^WT/GST-α-Hb^WT complex: fraction of the slow (T) phase [2] read?
A: The CO recombination kinetics after addition of β-Hb and 1 mM IHP to the GST-AHSP^WT/GST-α-Hb^WT complex: fraction of the slow (T) phase was 32 % T phase.

Q: What about the CO recombination kinetics after addition of β-Hb and 1 mM IHP to the GST-AHSP^WT/GST-α-Hb complex: fraction of the rapid (R) phase [3] of the same substance?
A: Its CO recombination kinetics after addition of β-Hb and 1 mM IHP to the GST-AHSP^WT/GST-α-Hb complex: fraction of the rapid (R) phase is 80 % R phase.

Q: And the CO recombination kinetics after addition of β-Hb and 1 mM IHP to the GST-AHSP^WT/GST-α-Hb complex: fraction of the rapid (R) phase [4]?
A: Its CO recombination kinetics after addition of β-Hb and 1 mM IHP to the GST-AHSP^WT/GST-α-Hb complex: fraction of the rapid (R) phase is 95 % R phase.

Q: And the CO recombination kinetics after addition of β-Hb and 1 mM IHP to the GST-AHSP^WT/GST-α-Hb complex: fraction of the rapid (R) phase [5]?
A: The CO recombination kinetics after addition of β-Hb and 1 mM IHP to the GST-AHSP^WT/GST-α-Hb complex: fraction of the rapid (R) phase was 84 % R phase.

Q: And the CO recombination kinetics after addition of β-Hb and 1 mM IHP to the GST-AHSP^WT/GST-α-Hb complex: fraction of the rapid (R) phase [6]?
A: The CO recombination kinetics after addition of β-Hb and 1 mM IHP to the GST-AHSP^WT/GST-α-Hb complex: fraction of the rapid (R) phase was 88 % R phase.

Q: GST-α-Hb^WT (natural protein) was tested. Which CO recombination kinetics after flash photolysis of the GST-AHSP^WT/GST-α-Hb complex: fraction of the intermediate (I) phase [1] did it give?
A: The CO recombination kinetics after flash photolysis of the GST-AHSP^WT/GST-α-Hb complex: fraction of the intermediate (I) phase was 100 % I phase.

Q: How did the CO recombination kinetics after flash photolysis of the GST-AHSP^WT/GST-α-Hb complex: fraction of the intermediate (I) phase [1] turn out when GST-α-Hb1-117 (domain or fragment) was run?
A: The CO recombination kinetics after flash photolysis of the GST-AHSP^WT/GST-α-Hb complex: fraction of the intermediate (I) phase was 20 % I phase.

Q: How did the CO recombination kinetics after flash photolysis of the complex: fraction of the intermediate (I) phase [1] turn out when native α-Hb (natural protein) was run?
A: The CO recombination kinetics after flash photolysis of the complex: fraction of the intermediate (I) phase was 100 % I phase.

Q: With GST-α-Hb1-138 (domain or fragment) as the substance, how does the CO recombination kinetics after flash photolysis of the GST-AHSP^WT/GST-α-Hb complex: fraction of the rapid (R) phase [1] read?
A: The CO recombination kinetics after flash photolysis of the GST-AHSP^WT/GST-α-Hb complex: fraction of the rapid (R) phase was 97 % R phase.

Q: Which CO recombination kinetics after flash photolysis of the GST-AHSP^WT/GST-α-Hb complex: fraction of the intermediate (I) phase [1] does the source give for GST-α-Hb1-134 (domain or fragment) here?
A: The CO recombination kinetics after flash photolysis of the GST-AHSP^WT/GST-α-Hb complex: fraction of the intermediate (I) phase was 10 % I phase.
